Measured values: CN116789836A (ZHEJIANG SHIMAI PHARMACEUTICAL CO LTD, dated 2023)
Where a chain is given by its changes, count along the chain named.

Key:
[1] = target: T1, 效应细胞的CD3抗原 (CD3 on Jurkat-NFAT-CD3 cells and human T cells) (human); assay: cell-based or functional assay
T1 chain: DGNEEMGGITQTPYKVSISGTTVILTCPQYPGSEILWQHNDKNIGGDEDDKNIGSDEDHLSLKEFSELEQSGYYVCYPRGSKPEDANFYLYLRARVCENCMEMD

[2] = target: T2, 细胞表面表达的DLL3 (H82 and LS174T-DLL3 cells) (human, UniProt Q9NYJ7 27-618); assay: cell-based or functional assay
T2 sequence (looked up): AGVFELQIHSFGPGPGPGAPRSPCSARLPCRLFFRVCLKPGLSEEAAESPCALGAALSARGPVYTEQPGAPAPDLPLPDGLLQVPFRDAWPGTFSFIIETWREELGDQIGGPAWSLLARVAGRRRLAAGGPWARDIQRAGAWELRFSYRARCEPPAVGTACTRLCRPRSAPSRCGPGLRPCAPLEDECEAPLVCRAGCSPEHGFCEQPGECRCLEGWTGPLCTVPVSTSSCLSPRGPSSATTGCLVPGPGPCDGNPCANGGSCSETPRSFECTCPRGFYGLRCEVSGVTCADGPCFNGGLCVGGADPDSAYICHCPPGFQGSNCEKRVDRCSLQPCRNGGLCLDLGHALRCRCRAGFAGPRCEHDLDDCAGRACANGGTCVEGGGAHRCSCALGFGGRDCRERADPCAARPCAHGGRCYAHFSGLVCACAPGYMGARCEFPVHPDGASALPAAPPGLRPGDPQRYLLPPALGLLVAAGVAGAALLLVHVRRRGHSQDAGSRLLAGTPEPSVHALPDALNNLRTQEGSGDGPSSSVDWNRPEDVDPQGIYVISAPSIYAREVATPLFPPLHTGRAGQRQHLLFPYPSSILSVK

人CD3蛋白 = target: T3, 人CD3蛋白 (human); assay: ELISA, coated human CD3 protein
T3 chain: T1 chain

人DLL3蛋白(His标签) [3] = target: T4, 人DLL3蛋白(His标签) (human, UniProt Q9NYJ7 27-479); assay: ELISA, coated human DLL3 protein
T4 construct: Bought protein (ACRO); also called 重组人DLL3; human DLL3 protein (His tag); not shown: His tag
T4 sequence (looked up): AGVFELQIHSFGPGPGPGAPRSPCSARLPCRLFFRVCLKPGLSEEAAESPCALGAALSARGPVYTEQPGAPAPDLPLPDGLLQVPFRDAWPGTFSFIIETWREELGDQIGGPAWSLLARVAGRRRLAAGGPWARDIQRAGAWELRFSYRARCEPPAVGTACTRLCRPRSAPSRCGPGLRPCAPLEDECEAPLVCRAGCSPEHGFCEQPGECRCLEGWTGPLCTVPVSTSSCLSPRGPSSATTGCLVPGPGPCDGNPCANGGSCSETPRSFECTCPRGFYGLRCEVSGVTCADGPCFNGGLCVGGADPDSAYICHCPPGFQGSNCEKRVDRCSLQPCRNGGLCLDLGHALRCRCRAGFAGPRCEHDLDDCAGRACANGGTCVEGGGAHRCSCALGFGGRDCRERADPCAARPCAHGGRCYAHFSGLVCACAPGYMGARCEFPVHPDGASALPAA

人DLL3蛋白(His标签) [4] = target: T4, 人DLL3蛋白(His标签); assay: ELISA, coated human DLL3 protein 100 ng per well, anti-Fc HRP detection

B1: DLL3-1G2H1L1-M6MV1-1 (bispecific antibody, human IgG1, kappa)
light: QVQLVQSGAELKKPGASVKLSCKASGYSFTSYWMNWVRQAPGQGLEWMGMIHPSDSETRLNQKFKDRVTLTVDKSSSTAYMELSSLTSEDTAVYYCARWDYYDYAWFAYWGQGTLVTVSSGGGGSGGGGSGGGGSDVVMTQTPLSLPVTLGQPASISCRSSQSIVHSNGDTYLEWYLQKPGQSPQLLIYKVSNRFSGVPDRFSGSGSGTDFTLKISRVEAEDVGVYYCFQGSHVPWTFGQGTKVEIKGSGGGGSGGGGSEIVVTQSPATLSVSPGERATLSCRSSTGAVTTSNYANWVQQKPGQAPRGLIGGANKRAPGVPARFSGSLSGDEATLTISSLQSEDFAVYYCALWYSNLWVFGQGTKLEIKRTVAAPSVFIFPPSDEQLKSGTASVVCLLNNFYPREAKVQWKVDNALQSGNSQESVTEQDSKDSTYSLSSTLTLSKADYEKHKVYACEVTHQGLSSPVTKSFNRGECGGSGSCPPCPAPEAAGAPSVFLFPPKPKDTLMISRTPEVTCVVVDVSHEDPEVKFNWYVDGVEVHNAKTKPREEQYNSTYRVVSVLTVLHQDWLNGKEYKCKVSNKALGAPIEKTISKAKGQPREPQVYTLPPSRDELTKNQVSLLCLVKGFYPSDIAVEWESNGQPENNYKTTPPVLDSDGSFFLHSKLTVDKSRWQQGNVFSCSVMHEALHNHYTQKSLSLSPG
heavy: EVQLVESGGGLVQPGGSLRLSCAASGFTFNTYAMNWVRQAPGKGLEWVARIRSKYNNYATYYADSVKGRFTISRDDSKNTLYLQMNSLRAEDTAVYYCARHGNFGSSYVSYFAYWGQGTTVTVSSASTKGPSVFPLAPSSKSTSGGTAALGCLVKDYFPEPVTVSWNSGALTSGVHTFPAVLQSSGLYSLSSVVTVPSSSLGTQTYICNVNHKPSNTKVDKKVEPKSCDKTHTCPPCPAPEAAGAPSVFLFPPKPKDTLMISRTPEVTCVVVDVSHEDPEVKFNWYVDGVEVHNAKTKPREEQYNSTYRVVSVLTVLHQDWLNGKEYKCKVSNKALGAPIEKTISKAKGQPREPQVYTLPPSRDELTKNQVSLLCLVKGFYPSDIAVEWESNGQPENNYKTTPPVLDSDGSFFLHSKLTVDKSRWQQGNVFSCSVMHEALHNHYTQKSLSLSPG
notes: also called DLL3×CD3 BiTE
[1]
  CTL EC50 (T cell dependent cytotoxicity on LS174T-DLL3 cells, human T cells, CCK8): 305 ng/mL
  T cell activation (Jurkat-NFAT-CD3 luciferase reporter) with H82 target cells, EC50: ~4020 ng/mL
  T cell activation (Jurkat-NFAT-CD3 luciferase reporter) with LS174T-DLL3 target cells, EC50: ~5470 ng/mL
[2]
  CTL EC50 (T cell dependent cytotoxicity on LS174T-DLL3 cells, human T cells, CCK8): 305 ng/mL
  T cell activation (Jurkat-NFAT-CD3 luciferase reporter) with H82 target cells, EC50: ~4020 ng/mL
  T cell activation (Jurkat-NFAT-CD3 luciferase reporter) with LS174T-DLL3 target cells, EC50: ~5470 ng/mL
人CD3蛋白
  EC50: 1.45 µg/mL
人DLL3蛋白(His标签) [3]
  EC50: 0.378 µg/mL

B2: DLL3-1G2H2L1-M6MV1-1 (bispecific antibody, human IgG1, kappa)
light: B1 light with K13R, M48I, R67K, V68A, T91S
heavy: B1 heavy
notes: also called DLL3×CD3 BiTE
[1]
  CTL EC50 (T cell dependent cytotoxicity on LS174T-DLL3 cells, human T cells, CCK8): 104 ng/mL
  T cell activation (Jurkat-NFAT-CD3 luciferase reporter) with H82 target cells, EC50: ~1970 ng/mL
  T cell activation (Jurkat-NFAT-CD3 luciferase reporter) with LS174T-DLL3 target cells, EC50: ~2700 ng/mL
[2]
  CTL EC50 (T cell dependent cytotoxicity on LS174T-DLL3 cells, human T cells, CCK8): 104 ng/mL
  T cell activation (Jurkat-NFAT-CD3 luciferase reporter) with H82 target cells, EC50: ~1970 ng/mL
  T cell activation (Jurkat-NFAT-CD3 luciferase reporter) with LS174T-DLL3 target cells, EC50: ~2700 ng/mL
人CD3蛋白
  EC50: 0.892 µg/mL
人DLL3蛋白(His标签) [3]
  EC50: 0.267 µg/mL

B3: DLL3-1G2 mAb (antibody, human IgG1, kappa, V domains shown)
VH: QVQLQQPGAELVRPGASVKLSCKASGYSFTSYWMNWVKQRPGQGLEWIGMIHPSDSETRLNQKFKDKATLTVDKSSSTAYMQLSSPTSEDSAVYYCARWDYYDYAWFAYWGQGTLVTVSA
VL: DVLMTQTPLSLPVSLGDQASISCRSSQSIVHSNGDTYLEWYLQKPGQSPNLLIYKVSNRFSGVPDRFSGSGSGTDFTLKISRVEAEDLGVYHCFQGSHVPWTFGGGTKLEIKR
notes: Chimeric full IgG1: Fab of murine clone 1G2 fused to human IgG1 Fc; also called 抗DLL3单克隆抗体
人DLL3蛋白(His标签) [4]
  EC50: 0.0295 µg/mL
